Laboratory results from publication PMC12834914, “The biochemical dynamics of the glycogen phosphatase laforin directly impact brain metabolism” (The Journal of Biological Chemistry, 2025).

B1: malin (Gal4 activation domain fusion) (natural protein, UniProt Q6VVB1 1-395, looked up)
chain: MAAEASESGPALHELMREAEISLLECKVCFEKFGHRQQRRPRNLSCGHVVCLACVAALAHPRTLALECPFCRRACRGCDTSDCLPVLHLIELLGSALRQSPAAHRAAPSAPGALTCHHTFGGWGTLVNPTGLALCPKTGRVVVVHDGRRRVKIFDSGGGCAHQFGEKGDAAQDIRYPVDVTITNDCHVVVTDAGDRSIKVFDFFGQIKLVIGGQFSLPWGVETTPQNGIVVTDAEAGSLHLLDVDFAEGVLRRTERLQAHLCNPRGVAVSWLTGAIAVLEHPLALGTGVCSTRVKVFSSSMQLVGQVDTFGLSLYFPSKITASAVTFDHQGNVIVADTSGPAILCLGKPEEFPVPKPMVTHGLSHPVALTFTKENSLLVLDTASHSIKVYKVDWG
notes: malin; source: yeast two-hybrid fusion (S. cerevisiae, pACT2)
B2: protein targeting to glycogen (Gal4 activation domain fusion) (natural protein, UniProt Q9UQK1 1-317, looked up)
chain: MSCTRMIQVLDPRPLTSSVMPVDVAMRLCLAHSPPVKSFLGPYDEFQRRHFVNKLKPLKSCLNIKHKAKSQNDWKCSHNQAKKRVVFADSKGLSLTAIHVFSDLPEEPAWDLQFDLLDLNDISSALKHHEEKNLILDFPQPSTDYLSFRSHFQKNFVCLENCSLQERTVTGTVKVKNVSFEKKVQIRITFDSWKNYTDVDCVYMKNVYGGTDSDTFSFAIDLPPVIPTEQKIEFCISYHANGQVFWDNNDGQNYRIVHVQWKPDGVQTQMAPQDCAFHQTSPKTELESTIFGSPRLASGLFPEWQSWGRMENLASYR
notes: protein targeting to glycogen (PTG); also called PTG; source: yeast two-hybrid fusion (S. cerevisiae, pACT2)

Biological target: T1, laforin C266S (LexA fusion) (human, UniProt O95278 1-331, C266S)
T1 construct: laforin, glycogen phosphatase encoded by EPM2A, catalytic cysteine mutated to serine; in mouse laforin the same change is C265S; also called LCS; laforin C/S; source: yeast two-hybrid fusion (S. cerevisiae, pEG202)
T1 sequence (looked up): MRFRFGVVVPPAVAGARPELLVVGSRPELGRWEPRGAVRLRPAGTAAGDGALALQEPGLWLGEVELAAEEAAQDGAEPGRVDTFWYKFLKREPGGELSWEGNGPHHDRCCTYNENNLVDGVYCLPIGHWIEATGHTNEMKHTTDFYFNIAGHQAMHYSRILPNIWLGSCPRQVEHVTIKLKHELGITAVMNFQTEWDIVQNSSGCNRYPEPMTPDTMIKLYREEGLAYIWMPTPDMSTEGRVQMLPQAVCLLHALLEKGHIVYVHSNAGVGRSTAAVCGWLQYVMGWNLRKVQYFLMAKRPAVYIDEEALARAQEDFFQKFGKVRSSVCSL
Test: two-hybrid; LexA-laforin (pEG202) with Gal4 activation domain-malin or -PTG (pACT2) in S. cerevisiae; beta-galactosidase activity in yeast cell extract, in Miller Units
Conditions: partners not purified

Row | Binder | fold signal against WT laforin
1 | B1 | ~2 fold
2 | B2 | ~2 fold
